Laboratory results from patent US20060240001A1 (AGOURON PHARMACEUTICALS, published 2006).

T1: recombinant human E-cadherin (R&D Systems 648-EC-100) (human, UniProt P12830 155-707)
T1 construct: Bought protein
T1 sequence (looked up): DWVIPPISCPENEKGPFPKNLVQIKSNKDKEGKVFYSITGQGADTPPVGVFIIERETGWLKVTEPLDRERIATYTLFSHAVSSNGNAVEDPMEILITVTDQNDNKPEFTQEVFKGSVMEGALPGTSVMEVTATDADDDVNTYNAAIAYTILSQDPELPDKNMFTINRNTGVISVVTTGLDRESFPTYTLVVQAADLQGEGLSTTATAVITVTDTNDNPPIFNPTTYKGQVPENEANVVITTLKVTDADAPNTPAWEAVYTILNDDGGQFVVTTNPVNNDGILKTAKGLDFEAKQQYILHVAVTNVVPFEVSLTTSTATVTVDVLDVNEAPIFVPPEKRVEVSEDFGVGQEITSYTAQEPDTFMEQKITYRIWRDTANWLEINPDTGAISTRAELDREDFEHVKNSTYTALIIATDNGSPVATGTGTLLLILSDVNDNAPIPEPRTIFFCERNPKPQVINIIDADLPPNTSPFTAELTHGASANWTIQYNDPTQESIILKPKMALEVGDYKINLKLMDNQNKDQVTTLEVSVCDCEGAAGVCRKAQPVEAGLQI


Experiments:
[1] = molecular target: T2, human P-cadherin on the surface of cells (human, UniProt P22223 108-829); experiment: epitope competition on A431 cells; competitor: biotinylated 129-1c4 IgG at 1x KD, DELFIA
T2 construct: whole, on cells; also called native P-cadherin on the surface of A431 cells; SW480 cells stably expressing P-cadherin

[2] = molecular target: T1, recombinant human E-cadherin (R&D …); experiment: ELISA on coated antigen, relative KD
[3] = molecular target: T3, Recombinant human P-cadherin Fc (R&D Systems 861-PC-100) (human, UniProt P22223 108-654); experiment: ELISA on coated antigen, relative KD
T3 construct: also called recombinant human P-cadherin/Fc fusion protein; hCad/Fc; not shown: Fc part of the bought fusion protein

[4] = molecular target: T3, Recombinant human P-cadherin Fc (R&D …); experiment: ELISA; KD on E-cadherin over KD on P-cadherin
[5] = molecular target: T2, human P-cadherin on the surface of cells; experiment: cell-based or functional assay
[6] = molecular target: T2, human P-cadherin on the surface of cells; experiment: cell-based or functional assay; remark: listed apart in the source
[7] = molecular target: T2, human P-cadherin on the surface of cells; experiment: cell-based or functional assay; remark: listed apart in the source
[8] = molecular target: T2, human P-cadherin on the surface of cells; experiment: cell-based or functional assay; remark: listed apart in the source

Binder	IC50 [1]	A431 Adhesion Assay Mean IC50 (nM) (n = 3) [6]	SW480 Aggregation Assay Mean IC50 [7]	further results
scFv variant of 129-1c4 with VH CDR3 SEQ ID NO: 37 and VL CDR3 SEQ ID NO: 305 (scFv, V domains shown, His-tagged purified scFv; also called 37 / 305) VH: not shown VL: QSALTQPASVSGSPGQSITISCTGTSNDVGAYNYVSWYQQHPGKAPKLILSEVNKRPSGVSNRFSGSKSGNTASLSISGLQAEDEADYYCSSFTSGQQWVLFGGGTKLTVL	2.19 nM			
scFv variant of 129-1c4 with VH CDR3 SEQ ID NO: 195 and VL CDR3 SEQ ID NO: 47 (scFv, V domains shown, His-tagged purified scFv; also called 195 / 47) VH: not shown VL: QSALTQPASVSGSPGQSITISCTGTSNDVGAYNYVSWYQQHPGKAPKLILSEVNKRPSGVSNRFSGSKSGNTASLSISGLQAEDEADYYCSSFTSGSTFMLFGGGTKLTVL	1.29 nM			
scFv variant of 129-1c4 with VH CDR3 SEQ ID NO: 37 and VL CDR3 SEQ ID NO: 277 (scFv, V domains shown, His-tagged purified scFv; also called 37 / 277) VH: not shown VL: QSALTQPASVSGSPGQSITISCTGTSNDVGAYNYVSWYQQHPGKAPKLILSEVNKRPSGVSNRFSGSKSGNTASLSISGLQAEDEADYYCSSFTSGDHWVLFGGGTKLTVL	2.2 nM			
194-e01 (antibody, V domains shown, Tested as IgG converted from scFv) VH: not shown VL: QSALTQPASVSGSPGQSITISCTGTSNDVGAYNYVSWYQQHPGKAPKLILSEVNKRPSGVSNRFSGSKSGNTASLSISGLQAEDEAGYYCTSYRAGSTFMLFGGGTKLTVL		0.147 nM	1.3 nM	Kd [2]: 20.5 nM; Kd [3]: 0.112 nM; KD(E)/KD(P) [4]: 183; SW480 Spheroid Disruption Assay, Fold Increased Disruption vs Control at 5 nM [5]: 16 fold
scFv variant of 129-1c4 with VH CDR3 SEQ ID NO: 37 and VL CDR3 SEQ ID NO: 295 (scFv, V domains shown, His-tagged purified scFv; also called 37 / 295) VH: not shown VL: QSALTQPASVSGSPGQSITISCTGTSNDVGAYNYVSWYQQHPGKAPKLILSEVNKRPSGVSNRFSGSKSGNTASLSISGLQAEDEADYYCSSFTSGKTFVLFGGGTKLTVL	0.8 nM			
scFv variant of 129-1c4 with VH CDR3 SEQ ID NO: 37 and VL CDR3 SEQ ID NO: 299 (scFv, V domains shown, His-tagged purified scFv; also called 37 / 299) VH: not shown VL: QSALTQPASVSGSPGQSITISCTGTSNDVGAYNYVSWYQQHPGKAPKLILSEVNKRPSGVSNRFSGSKSGNTASLSISGLQAEDEADYYCSSFTSDRAFNLFGGGTKLTVL	1.97 nM			

Second part, led by results:

IC50 [1]	A431 Adhesion Assay Mean IC50 (nM) (n = 3) [6]	SW480 Aggregation Assay Mean IC50 [7]	Binder	further results
2.49 nM			scFv variant of 129-1c4 with VH CDR3 SEQ ID NO: 37 and VL CDR3 SEQ ID NO: 297 (scFv, V domains shown, His-tagged purified scFv; also called 37 / 297) VH: not shown VL: QSALTQPASVSGSPGQSITISCTGTSNDVGAYNYVSWYQQHPGKAPKLILSEVNKRPSGVSNRFSGSKSGNTASLSISGLQAEDEADYYCSSFTSSAHFVLFGGGTKLTVL	
1.78 nM			scFv variant of 129-1c4 with VH CDR3 SEQ ID NO: 37 and VL CDR3 SEQ ID NO: 261 (scFv, V domains shown, His-tagged purified scFv; also called 37 / 261) VH: not shown VL: QSALTQPASVSGSPGQSITISCTGTSNDVGAYNYVSWYQQHPGKAPKLILSEVNKRPSGVSNRFSGSKSGNTASLSISGLQAEDEADYYCSSFTSQIPWALFGGGTKLTVL	
	0.114 nM	1.7 nM	195-a09 (antibody, V domains shown, Tested as IgG converted from scFv; also called 195-a09 IgG) VH: not shown VL: QSALTQPASVSGSPGQSITISCTGTSNDVGAYNYVSWYQQHPGKAPKLILSEVNKRPSGVSNRFSGSKSGNTASLSISGLQAEDEADYYCTSYTMGSTFMLFGGGTKLTVL	Kd [2]: 11.5 nM; Kd [3]: 0.12 nM; KD(E)/KD(P) [4]: 96; SW480 Spheroid Disruption Assay, Fold Increased Disruption vs Control at 5 nM [5]: 10 fold
5.67 nM			scFv variant of 129-1c4 with VH CDR3 SEQ ID NO: 37 and VL CDR3 SEQ ID NO: 43 (scFv, V domains shown, His-tagged purified scFv; also called 37 / 43) VH: not shown VL: QSALTQPASVSGSPGQSITISCTGTSNDVGAYNYVSWYQQHPGKAPKLILSEVNKRPSGVSNRFSGSKSGNTASLSISGLQAEDEADYYCTSYTMGSTFMLFGGGTKLTVL	
	0.162 nM	0.7 nM	194-e06 (antibody, V domains shown) VH: not shown VL: QSALTQPASVSGSPGQSITISCTGTSNDVGAYNYVSWYQQHPGKAPKLILSEVNKRPSGVSNRFSGSKSGNTASLSISGLQAEDEADYYCSSFTSGLPWVLFGGGTKLTVL	A431 Adhesion Assay Mean IC50 (nM) (n = 2) [8]: 0.46 nM
	0.148 nM	3.2 nM	196-h02 (antibody, V domains shown, Tested as IgG converted from scFv; also called 196-h02 IgG) VH: not shown VL: QSALTQPASVSGSPGQSITISCTGTSNDVGAYNYVSWYQQHPGKAPKLILSEVNKRPSGVSNRFSGSKSGNTASLSISGLQAEDEADYYCTSYTMGSTFMLFGGGTKLTVL	Kd [3]: 0.102 nM; KD(E)/KD(P) [4]: 326; SW480 Spheroid Disruption Assay, Fold Increased Disruption vs Control at 5 nM [5]: 10 fold
5.11 nM			scFv variant of 129-1c4 with VH CDR3 SEQ ID NO: 165 and VL CDR3 SEQ ID NO: 47 (scFv, V domains shown, His-tagged purified scFv; also called 165 / 47) VH: not shown VL: QSALTQPASVSGSPGQSITISCTGTSNDVGAYNYVSWYQQHPGKAPKLILSEVNKRPSGVSNRFSGSKSGNTASLSISGLQAEDEADYYCSSFTSGSTFMLFGGGTKLTVL	
